# Data from the supplement of paper PMC12667976.
# ± gives the standard error.
# B1: library; numbered along this chain (parent)
# chain: MATDAALRRLLRLHRTEIAVAVDSAFPLLHALADHDVVPEDKFQETLHLKEKEGCPQAFHALLSWLLTQDSTAILDFWRVLFKDYNLERYGRLQPILDSFPKDVDLSQPRKGRKPPAVPKALVPPPRLPTKRKASEEARAAAPAALTPRGTASPGSQLKAKPPKKPESSAEQQRLPLGNGIQTMSASVQRAVAMSSGDVPGARGAVEGILIQQVFESGGSKKCIQVGGEFYTPSKFEDSGSGKNKARSSSGPKPLVRAKGAQGAAPGGGEARLGQQGSVPAPLALPSDPQLHQKNEDECAVCRDGGELICCDGCPRAFHLACLSPPLREIPSGTWRCSSCLQATVQEVQPRAEEPRPQEPPVETPLPPGLRSAGEEVRGPPGEPLAGMDTTLVYKHLPAPPSAAPLPGLDSSALHPLLCVGPEGQQNLAPGARCGVCGDGTDVLRCTHCAAAFHWRCHFPAGTSRPGTGLRCRSCSGDVTPAPVEGVLAPSPARLAPGPAKDDTASHEPALHRDDLESLLSEHTFDGILQWAIQSMARPAAPFPS
# Variants of: B1
# Assay: AIRE transcriptional activation functional score (insulin promoter-GFP; nonsense median 0, synonymous median 1) (normalised score); higher = higher AIRE activity (more reporter activation)
# Conditions: with insulin promoter-GFP reporter in HEK293
# Method in brief: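 Codon-optimized AIRE NNN-codon libraries (three regions) were integrated by Bxb1 recombinase into Flp-In T-REx HEK293 landing-pad cells carrying an insulin core promoter-GFP reporter. Integrants (mCherry+, BFP−) sorted at day 7 were expanded 7 days; top 10% GFP and unselected integrant populations were tile-sequenced. Functional score is select versus non-select variant enrichment, wild-type subtracted. Variants needed 10 counts per million in non-select; scores were rescaled to nonsense median 0 and synonymous median 1, then averaged over biological replicates.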
row,Variant,AIRE transcriptional activation functional score
1,G197I,1.09 ± 0.18
2,E17C,-0.595 ± 0.37
3,N244C,0.374 ± 0.65
4,C55A,-0.603 ± 0.34
5,M388N,0.557 ± 0.46
6,S217G,1.1 ± 0.24
7,S220A,0.262 ± 0.063
8,P509N,0.827 ± 0.43
9,G306M,0.451 ± 0.042
10,P497Q,1.02 ± 0.092
11,G374I,1.18 ± 0.31
12,Y85E,-2.83 ± 0.47
13,R494C,0.847 ± 0.14
14,S249W,1.81 ± 0.072
15,S249Q,0.961 ± 0.049
16,A541R,0.198 ± 0.16
17,P166V,0.921 ± 0.76
18,E423T,0.737 ± 0.77
19,T463D,1.54 ± 0.082
20,T463S,1.01 ± 0.25
21,P365C,1.05 ± 0.19

row,Variant,AIRE transcriptional activation functional score
1,S338N,1.3 ± 0.079
2,F453N,0.22 ± 0.092
3,D514H,0.52 ± 0.14
4,D514F,0.299 ± 0.13
5,A21C,0.675 ± 0.39
6,Q346M,1.29 ± 0.055
7,D103W,0.822 ± 0.55
8,P422Y,1.42 ± 0.07
9,L320H,0.847 ± 0.13
10,L308G,0.784 ± 0.17
11,K164C,0.129 ± 0.57
12,E216Q,0.964 ± 0.12
13,E216W,0.395 ± 0.14
14,S491N,0.925 ± 0.47
15,C337K,1.28 ± 0.17
16,S71T,1.05 ± 0.065
17,K501G,0.947 ± 0.19
18,L444H,1.18 ± 0.073
19,A152L,1.19 ± 0.46
20,K159Q,0.00224 ± 0.94
21,A496G,0.999 ± 0.12

row,Variant,AIRE transcriptional activation functional score
1,C223K,0.604 ± 0.12
2,C223Y,0.577 ± 0.15
3,I96L,0.547 ± 0.3
4,R465Q,0.443 ± 0.2
5,L175W,1.8 ± 0.038
6,C310D,0.991 ± 0.16
7,S506Q,0.92 ± 0.13
8,A160G,0.964 ± 0.44
9,G467R,1.01 ± 0.36
10,K50C,0.454 ± 0.28
11,K50M,0.465 ± 0.05
12,L470D,0.572 ± 0.11
13,P492Y,0.427 ± 0.18
14,G178Q,0.33 ± 0.56
15,G178K,0.788 ± 0.31
16,R110I,1.21 ± 0.57
17,P539K,0.00204 ± 0.28
18,P539S,0.85 ± 0.2
19,L418A,1.06 ± 0.15
20,L418V,1.04 ± 0.086
21,G435W,0.957 ± 0.092

row,Variant,AIRE transcriptional activation functional score
1,R356I,1.03 ± 0.14
2,R356S,0.974 ± 0.15
3,A61T,0.573 ± 0.52
4,S521L,0.969 ± 0.066
5,H507T,0.361 ± 0.44
6,I309V,1.14 ± 0.24
7,I309C,0.782 ± 0.19
8,I309F,1.18 ± 0.065
9,S250I,1.11 ± 0.26
10,S250V,1.1 ± 0.27
11,E237V,1.19 ± 0.12
12,K111M,-0.763 ± 0.21
13,K243T,1.08 ± 0.15
14,R336F,1.13 ± 0.43
15,D297E,0.884 ± 0.34
16,Q57G,-0.774 ± 0.8
17,Q57I,0.761 ± 0.91
18,P380Y,1.42 ± 0.14
19,L28D,-0.558 ± 0.17
20,V362W,1.24 ± 0.036
